Test results taken from US5976535A, “Pretargeting protocols for the enhanced localization of cytotoxins to target sites and cytotoxic combinations useful therefore” (NeoRx Corporation, priority 1995, dated 1999).
Read-outs that look alike come from different tables or passages of the source.

Tests used:
[1] = in vivo; cited from earlier work
[2] = tested on: LS-180 human colon tumor xenografts
Description: The experimental protocol was as follows:
Group 1: Time 0, inject 100 μg ^125 I-labeled,
The three radiolabels employed in this protocol are capable of detection in the presence of each other.
Areas under the curves (AUC) and the ratio of AUCtumor /AUCblood were determined.

[3] = biological target: T1, Streptavidin-agarose beads (Streptomyces avidinii, UniProt P22629); assay: Binding to streptavidin-agarose beads; conditions: for Pellet: radioactivity bound to beads; for Supernatant: radioactivity not bound to beads
T1 construct: purchased Sigma S-1638
T1 sequence (P22629 25-183): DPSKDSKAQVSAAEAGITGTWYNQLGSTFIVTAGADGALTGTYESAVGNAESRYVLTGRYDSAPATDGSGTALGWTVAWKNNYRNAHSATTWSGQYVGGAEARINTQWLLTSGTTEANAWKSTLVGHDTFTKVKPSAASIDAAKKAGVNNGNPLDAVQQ
Description: B. Biotinylation of asialoorosomucoid clearing agent and orosomucoid control. 100 μl of 0.2 M sodium carbonate buffer, pH 9.2, was added to 2 mg (in 1.00 ml PBS) of PIP-125-labeled orosomucoid and to 2 mg PIP-125-labeled asialoorosomucoid. 60 μl of a 1.85 mg/ml solution of NHS-amino caproate biotin in DMSO was then added to each compound. The reaction mixtures were vortexed and allowed to sit at room temperature for 45 minutes. […]. Streptavidin-agarose beads (Sigma S-1638) or -pellets were washed with PBS, and 20 μg of each biotinylated, radiolabeled protein was added to 400 μl of beads and 400 μl of PBS, vortexed for 20 seconds and centrifuged at 14,000 rpm for 5 minutes. The supernatant was removed and the pellets were washed with 400 μl PBS. This wash procedure was repeated twice more, and the combined supernatants were assayed by placing them in a dosimeter versus their respective pellets.

[4] = type: in vivo, female BALB/c mice; conditions: 5 minutes post-administration, percent injected dose of I-125-labeled protein
Description: A. Derivitization of orosomucoid. 10 mg human orosomucoid (Sigma N-9885) was dissolved in 3.5 ml of pH 5.5 0.1 M sodium acetate buffer containing 160 mM NaCl. 70 μl of a 2% (w/v) CaCl solution in deionized (D.I.) water was added and 11 μl of neuraminidase (Sigma N-7885), 4.6 U/ml, was added. The mixture was incubated at 37° C. for 2 hours, and the entire sample was exchanged over a Centricon-10® ultrafiltration device (available from Amicon, Danvers, Mass.) with 2 volumes of PBS. The asialoorosomucoid and orosomucoid starting material were radiolabeled with I-125 using PIP technology, as described in Example IV above.
In addition, two animals receiving each compound were sacrificed at 5 minutes post-administration and limited biodistributions were performed.

LS-180 tumor = conditions: mouse, in vivo
Description: (§2) Time 0 inject (i.v.) 200 μg NR-LU-10-StrAv

[5] = Tumor uptake of PIP-biocytin (two-step pretargeting); type: in vivo, tumored nude mice; conditions: mouse, tumor, 0.0005 mg; 0.5 μg dose; 120 hour time point (96 hours after administration); read-out: peak tumor uptake
Description: (§1) At 24 hours, the mice received an i.v. injection of PIP-I-131-biocytin (40 μCi) and an amount of cold carrier PIP-I-127 biocytin corresponding to doses of 42 μg (69,767 pmol), 21 μg (34,884 pmol), 5.7 μg (9468 pmol), 2.85 μg (4734 pmol) or 0.5 μg (830 pmol).

LS-180 tumor xenografts [6] = assay: as above; type: in vivo, tumored nude mice
Description: as §1

in vivo = conditions: mouse
Description: as §2

LS-180 tumor xenografts [7] = assay: Two-step pretargeting of 131I-PIP-biocytin in tumor-bearing mice; type: in vivo, female nude mice; conditions: 200 μg NR-LU-10-streptavidin at t=0; 42 μg at t=36 h
Description: At t=0, the mice were injected with 200 μg of NR-LU-10-streptavidin conjugate labeled with ^125 I using PIP-NHS (see Example IV.A.). At t=36 h, the mice received 42 μg of ^131 IPIP-biocytin.

In the case of TNF-alpha, the serum half-life [1] is given as 10 to 15 min.

For Avidin, the tumor uptake ([2]; at 25 h (antibody at time 0, avidin at 24 h)) was “about 250 pmol/g”, the tumor uptake ([2]; at 32 h (antibody at time 0, avidin at 24 h)) was ~150 pmol/g and the tumor uptake ([2]; at 48 h (antibody at time 0, avidin at 24 h)) was ~50 pmol/g. The tumor uptake ([2]; at 120 h (antibody at time 0, avidin at 24 h)) was ~0 pmol/g.

For “asialoorosomucoid: orosomucoid treated with neuraminidase to remove sialic acid residues”, the Pellet [3] was 8.0%, the Supernatant [3] was 92% and the blood level [4] was 0.4%.

With `O=C(CCCCC1SCC2NC(=O)NC21)NCCCCC(NC(=O)c1ccc([131I])cc1)C(=O)O` (stereo not shown) [PIP-biocytin] the peak tumor uptake (LS-180 tumor) was “about 700 pMOL/G”, the tumor uptake (LS-180 tumor) was “above 500 pMOL/G” and the tissue uptake at 96 h [5] was 85 %ID/g. The “absolute AUCtumor” value (LS-180 tumor xenografts [6]; mouse, in vivo) was 9220, the tumor localization (LS-180 tumor xenografts [6]; three highest doses (42, 21, 5.7 μg), 4 hours after injection) was “about 600 pmol/g” and the half-life (in vivo) was ~5 min. The “specific tumor localization, molecules per avidin molecule” value (LS-180 tumor xenografts [7]) was “≈ 1.5”.

With “orosomucoid: human orosomucoid (alpha-1 acid glycoprotein, Sigma N-9885), I-125 labeled [reference compound]” the Pellet [3] was 10%, the Supernatant [3] was 90% and the blood level [4] was 78%.

B1: TNF-beta: tumor necrosis factor beta form, 171 amino acids (protein, UniProt P01374 35-205, looked up)
Lymphotoxin-alpha: LPGVGLTPSAAQTARQHPKMHLAHSTLKPAAHLIGDPSKQNSLLWRANTDRAFLQDGFSLSNNSLLVPTSGIYFVYSQVVFSGKAYSPKATSSPLYLAHEVQLFSSQYPFHVPLLSSQKMVYPGLQEPWLHSMYHGAAFQLTQGDQLSTHTDGIPHLVLSPSTVFFGAFAL
For B1, the serum half-life [1] is listed as 10 to 15 min.
